How the values were obtained:
[1] = Stability testing of biopharmaceuticals under denaturing conditions; assay type: physicochemical; conditions: after exposure to harsh denaturing conditions (low pH or heat)
Description: For this purpose, 5 mg/mL Glucagon (Glucagen; Novo Nordisk Farma B. V., Alphen aan de Rijn, The Netherlands) was incubated at 37° C. in 0.01 M HCl for 48 hours. One mg/mL Etanercept (Enbrel; Wyeth Pharmaceuticals B. V., Hoofddorp, The Netherlands) in 67 mM sodium phosphate buffer, 100 mM NaCl pH 7.0 was gradually heated from 30° C. to 85° C. over a period of 12 minutes and afterwards cooled to 4° C. for 5 minutes, this treatment was repeated 4 times. Abciximab (Reopro; Centocor B. V., Leiden, The Netherlands) and Infliximab (Remicade; Schering-Plough B. V., Utrecht, The Netherlands) were incubated at 65° C. for 16 and 72 hours, respectively.

LRP cl-IV = target: T1, LRP cl-IV (Homo sapiens, UniProt Q07954); experiment: ELISA, LRP cluster IV binding to misfolded proteins; conditions: coated at 5 μg/ml
T1 construct: Cluster IV of the low-density lipoprotein (LDL) receptor-related protein (LRP cl-IV); made in house; host or cells: HEK293E/S
T1 sequence (Q07954 3332-3778): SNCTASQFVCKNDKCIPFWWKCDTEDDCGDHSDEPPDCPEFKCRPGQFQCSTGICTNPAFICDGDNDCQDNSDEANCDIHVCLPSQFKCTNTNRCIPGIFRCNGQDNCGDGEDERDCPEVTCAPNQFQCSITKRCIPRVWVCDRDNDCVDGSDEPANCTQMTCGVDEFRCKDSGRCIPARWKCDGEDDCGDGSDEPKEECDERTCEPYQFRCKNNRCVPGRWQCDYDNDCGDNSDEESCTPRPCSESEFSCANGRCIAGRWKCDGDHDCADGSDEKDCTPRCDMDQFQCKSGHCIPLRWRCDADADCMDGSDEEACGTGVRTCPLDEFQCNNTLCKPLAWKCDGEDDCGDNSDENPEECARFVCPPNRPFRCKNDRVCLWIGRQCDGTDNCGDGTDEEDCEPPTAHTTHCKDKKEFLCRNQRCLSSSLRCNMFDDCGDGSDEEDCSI
Description: Binding of LRP cl-IV to misfolded protein was determined using an enzyme linked immuno sorbent assay (ELISA) set-up. For this purpose 50 μl of a 5 μg/ml solution of BSA, BSA-AGE, Hb or Hb-AGE or coat buffer (for negative control) was coated for 1 h with motion. Proteins were diluted in coat buffer (100 mM NaHCO3 pH 9.6). The BSA and Hb controls were prepared freshly by dissolving proteins at 1 mg/ml in PBS by rolling for 10 minutes on a roller bank at room temperature, 10 minutes incubation at 37° C. followed by again 10 minutes incubation at the roller bank. Coat controls were performed with anti-glycated protein antibody 4B5, anti-albumin antibody or anti Hb antibody. After coating the plates were washed twice with PBS/0.1% Tween-20 (v/v) and blocked with 300 μl/well blocking reagent (Roche Diagnostics, Almere, The Netherlands) for 1 h at room temperature with motion. […] After five washes with wash buffer binding of antibody was assessed with a secondary antibody. […] After 5 washes with wash buffer, binding of anti-FLAG antibody and secondary antibodies was assessed with 100 μl/well TMB substrate (ready to use from Tebu Bio). […] After ˜2 minutes absorbance was read at 450 nm.

platelets = experiment: Platelet aggregation assay with BSA-AGE spiked plasma before and after depletion; assay type: cell-based, human; conditions: 512-fold diluted plasma spiked with 250 μg/ml, tenfold diluted
Description: Results are compared to platelet activating properties of the spiked plasma before depletion of BSA-AGE.
Freshly drawn human aspirin free blood was mixed gently with citrate buffer to avoid coagulation. Blood was spinned for 15′ at 150*g at 20° C. and supernatant was collected; platelet rich plasma (PRP) with an adjusted final platelet number of 200,000 platelets/μl. Platelets were kept at 37° C. for at least 30′, before use in the assays, to ensure that they were in the resting state. For the aggregometric assays, 270 μl platelet solution was added to a glass tube and prewarmed to 37° C. A stirring magnet was added and rotation was set to 900 rpm, and the apparatus (Whole-blood aggregometer, Chrono-log, Havertown, Pa., USA) was blanked. […] Aggregation was followed in time by measuring the absorbance of the solution, that will decrease in time upon platelet aggregation. As a positive control synthetic thrombin receptor activating peptide TRAP was used. Aggregation was recorded for 15′ and expressed as the percentage of the transmitted light (0-100%).

BiP = target: T2, BiP (Homo sapiens, UniProt P11021); experiment: Affinity determination ELISA, BiP on coated (mis)folded proteins; assay type: binding; conditions: coated protein as labelled
T2 construct: made in house; host or cells: HEK293E
T2 sequence (P11021 19-654): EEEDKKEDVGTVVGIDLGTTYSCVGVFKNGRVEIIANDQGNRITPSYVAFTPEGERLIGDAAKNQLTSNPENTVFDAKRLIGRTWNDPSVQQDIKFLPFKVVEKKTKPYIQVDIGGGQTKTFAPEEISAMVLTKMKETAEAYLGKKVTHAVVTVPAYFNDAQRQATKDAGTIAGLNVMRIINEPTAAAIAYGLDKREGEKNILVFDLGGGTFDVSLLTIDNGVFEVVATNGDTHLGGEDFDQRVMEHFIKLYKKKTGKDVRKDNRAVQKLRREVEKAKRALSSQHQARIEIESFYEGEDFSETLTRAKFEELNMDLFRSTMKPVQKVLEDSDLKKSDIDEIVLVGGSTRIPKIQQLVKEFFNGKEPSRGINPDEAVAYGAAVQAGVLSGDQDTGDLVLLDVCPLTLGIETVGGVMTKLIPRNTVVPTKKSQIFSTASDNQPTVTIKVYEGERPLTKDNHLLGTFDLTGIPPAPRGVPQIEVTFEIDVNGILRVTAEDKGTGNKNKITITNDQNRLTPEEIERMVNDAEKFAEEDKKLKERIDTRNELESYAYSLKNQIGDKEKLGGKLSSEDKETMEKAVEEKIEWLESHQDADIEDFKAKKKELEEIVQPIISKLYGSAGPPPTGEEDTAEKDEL
Excerpt: Synthetic genes of human BiP, human fibronectin finger 4,5 (Fn F4,5) fragment, and human tissue-type plasminogen activator finger EGF (tPA F-EGF) fragment were ordered from Geneart (Regensburg, Germany). These DNA constructs were digested using BamHI and NotI, and ligated into vector pABC674 (ABC-expression facility, Utrecht University, The Netherlands), which contains a carboxy-terminal FLAG-tag—His-tag. HEK293E cells were transiently transfected with these constructs using the polyethylene-imine method, and grown for 5-6 days.
Denatured proteins and their native controls BSA (Sigma, A7906), glycated BSA, Hb (Sigma, H7605), glycated Hb, ovalbumin (Sigma, A6741), heat-denatured misfolded ovalbumin, human γ-globulins (Sigma, G4386), heat-denatured misfolded γ-globulins, alkyl-γ-globulins, lysozyme (ICN Biochemicals, 100831) and alkyl-lysozyme were coated on ELISA plates (Greiner Microlon high-binding, 655092) in 50 mM NaHCO3-buffer pH 9.6. The plates were blocked using Blocking reagent (Roche 1112589). […] Bound protein is detected by the FLAG-tag using 1:3000 anti-FLAG-HRP (Sigma A-8592) in PBS-T, or by 1:1000 Ni-NTA-HRP (Qiagen 34530) in PBS-T. The HRP reaction Is performed using the TMB substrate (Biosource 4501103 or Tebu Bio 101TMB100-500), stopped using 10% H2SO4 and absorbance was measured at 450 nm.

binding of LRP cl-IV (LRP cl-IV) | binding of BiP (BiP) | Substance | amyloid-like properties (ThT-fluorescence and tPA activation) [1] | platelet aggregation (platelets)
 |  | Abciximab: abciximab, an inhibitor of blood platelet aggregation (ReoPro, Centocor) | amyloid-like properties are adopted | 
binds specifically | high affinity | albumin-AGE: advanced glycation end-product modified bovine serum albumin |  | Platelets readily aggregate

— patent publication US20080220446A1, “Method for Detecting and/or Removing Protein and/or Peptide Comprising a Cross-Beta Structure From an Aqueous Solution Comprising a Protein” (priority 2005, published 2008)
